Laboratory results published in patent US20080233135A1, “Cobalamin taxane bioconjugates” (priority 2007, published 2008).

Key:
white blood cells = conditions: mice, about 2 mg/kg dose, 28 days
Method: A group of 6 mice are administered various dosages of the cobalamin-paclitaxel bioconjugate prepared in accordance with Example 1 over a 28 day period. The effects to the viable circulating endothelial cell precursors and white blood cells are measured after 28 days.

[1] = tested on: bFGF-stimulated formation of new blood vessel in the Matrigel plug; test: Matrigel plug perfusion in vivo assay (anti-angiogenic efficacy); conditions: mice, Matrigel and bFGF
Source text: The assay uses Matrigel, a gelatinous protein mixture secreted by mouse tumor cells and marketed by BD Biosciences, to duplicate tissue environments. Matrigel is liquid at room temperature, but when injected into the animal, forms a solid plug. If a growth vessel stimulant such as basic fibroblast growth factor (bFGF) is mixed with the Matrigel, the bFGF stimulates the formation of new blood vessel in the plug, which can be monitored in the animal via fluorescence techniques. In the current study, Matrigel is injected either alone or with bFGF subcutaneously into mice.

CC(=O)O[C@H]1C(=O)[C@@]2(C)C([C@H](OC(=O)c3ccccc3)[C@]3(O)C[C@H](OC(=O)[C@H](OC(=O)C[NH+](C)CC[CH2][Co+][N]4/C5=C(/C)C6=N/C(=C\C7=NC(=C(/C)C8=NC(C(C)C4C(CC(N)=O)C5(C)CCC(=O)NCC(C)OP(=O)([O-])OC4C(CO)OC(n5cnc9cc(C)c(C)cc95)C4O)C(C)(CC(N)=O)C8CCC(N)=O)/C(C)(CC(N)=O)C7CCC(N)=O)C(C)(C)C6CCC(N)=O)[C@@H](NC(=O)c4ccccc4)c4ccccc4)C(C)=C1C3(C)C)[C@]1(OC(C)=O)COC1C[C@@H]2O.[Cl-] (some centres unmarked) [cobalamin-paclitaxel bioconjugate, Cbl—(CH2)3N(CH3)CH2COO-2′-PTX]
toxicity by white blood cell count (white blood cells): no neutropenia
anti-angiogenic performance compared with DC101 [1]: better performance than that of DC101
